Legend:
[1] = biological target: recombinant human FcRn protein (neonatal Fc receptor) (human) (UniProt P55899)
[2] = biological target: recombinant human FcRn protein (neonatal Fc receptor) (human) (UniProt P55899); remark: listed apart in the source

| decrease of basal-to-apical transcytosis of CR3022 (400 µg) across WD-HAE cultures with 10-fold excess IVIG (4 mg) as competitor [1] [%] | reduction of basal-to-apical transcytosis of CR3022-LS across WD-HAE cultures with excess IVIG as competitor [2] [%] | Substance |
| --- | --- | --- |
| 50 |  | CR3022 (human recombinant monoclonal antibody, wildtype IgG1-Fc) |
|  | 20 | CR3022-LS (CR3022 with Fc containing the LS mutation) (antibody) |

Reference: PMC11439726
